# Measured values from publication PMC4973297, “Crystal structure of the PAS domain of the hEAG potassium channel” (Acta Crystallographica. Section F, Structural Biology …, 2016).
# Biological target: the molecule itself
# Assay: SEC; HiLoad 26/60 Superdex 200, 20 mM Tris-HCl pH 7.5, 200 mM NaCl, 5 mM DTT; last step of the purification
protein,measurement,value
"N-PAS domain of the human EAG channel (residues 1-146) (domain or fragment, UniProt O95259 1-146, looked up, human ether-a-go-go potassium channel (hEAG), N-terminal residues 1-146 holding the PAS domain; amplified from a human cDNA library; calculated mass 16 933.16 Da; The crystal has six molecules per asymmetric unit; Only about residues 27/28 to 135/137 are built in the model; Residues left by PreScission cleavage are not described; also called hEAG N-PAS domain; PAS domain of hEAG; not shown: GST, …) MTMAGGRRGLVAPQNTFLENIVRRSNDTNFVLGNAQIVDWPIVYSNDGFCKLSGYHRAEVMQKSSTCSFMYGELTDKDTIEKVRQTFENYEMNSFEILMYKKNRTPVWFFVKIAPIRNEQDKVVLFLCTFSDITAFKQPIEDDSCK",stoichiometry N,2
